Measured values taken from article PMC9482650, “Quantitative fragmentomics allow affinity mapping of interactomes” (Nature Communications, 2022).

Columns and labels:
Experiment in all cases: holdup assay
Parameters in all cases: key: below the threshold = too weak to quantify, mostly under pKd 3.1 to 4
[1] = target: GRIP2_7, Q9C0E4
[2] = target: DLG2_2, Q15700
[3] = target: GIPC2, Q8TF65
[4] = target: PARD3_3, Q8TEW0
[5] = target: T1, SNTA1, Q13424
T1 sequence (Q13424 82-180, limits assumed, looked up): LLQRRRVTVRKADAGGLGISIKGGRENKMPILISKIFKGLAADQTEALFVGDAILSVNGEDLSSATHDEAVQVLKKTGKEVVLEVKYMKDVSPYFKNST

[6] = target: DLG1_2, Q12959
[7] = target: GRIP2_5, Q9C0E4
[8] = target: Inadl_8, Q8NI35
[9] = target: LNX1_2, Q8TBB1
[10] = target: FRMPD2_2, Q68DX3
[11] = target: T2, TX1BP3, O14907
T2 sequence (O14907 10-122, limits assumed, looked up): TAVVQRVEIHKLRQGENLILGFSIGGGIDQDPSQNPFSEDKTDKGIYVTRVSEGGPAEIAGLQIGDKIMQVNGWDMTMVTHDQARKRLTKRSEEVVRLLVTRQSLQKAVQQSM

[12] = target: T3, SNTB1, Q13884
T3 sequence (Q13884 107-205, limits assumed, looked up): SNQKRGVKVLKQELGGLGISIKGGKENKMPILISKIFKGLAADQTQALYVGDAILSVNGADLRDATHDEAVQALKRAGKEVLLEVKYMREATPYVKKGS

[13] = target: T4, MPP6, Q9NZW5
T4 sequence (Q9NZW5 125-219, limits assumed, looked up): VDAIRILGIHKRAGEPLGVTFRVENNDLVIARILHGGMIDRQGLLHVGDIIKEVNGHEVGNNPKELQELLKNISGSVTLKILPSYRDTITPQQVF

[14] = target: T5, SNTG1, Q9NSN8
T5 sequence (Q9NSN8 52-150, limits assumed, looked up): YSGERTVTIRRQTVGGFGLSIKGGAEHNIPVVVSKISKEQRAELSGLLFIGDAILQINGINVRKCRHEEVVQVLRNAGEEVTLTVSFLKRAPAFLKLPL

[15] = target: T6, PDZD7_3, Q9H5P4
T6 sequence (Q9H5P4 857-944, limits assumed, looked up): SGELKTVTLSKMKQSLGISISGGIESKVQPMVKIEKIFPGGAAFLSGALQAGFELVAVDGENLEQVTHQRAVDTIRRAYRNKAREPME

[16] = target: T7, APBA2_2, Q99767
T7 sequence (Q99767 654-744, limits assumed, looked up): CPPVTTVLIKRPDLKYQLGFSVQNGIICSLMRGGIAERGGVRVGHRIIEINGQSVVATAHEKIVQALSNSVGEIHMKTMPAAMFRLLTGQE

[17] = target: DLG2_3, Q15700
[18] = target: T8, LIN7C, Q9NUP9
T8 sequence (Q9NUP9 88-185, limits assumed, looked up): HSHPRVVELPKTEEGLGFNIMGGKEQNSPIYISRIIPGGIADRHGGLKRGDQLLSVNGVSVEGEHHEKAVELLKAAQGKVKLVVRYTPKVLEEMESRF

[19] = target: SCRIB_2, Q14160
[20] = target: T9, NHERF3_1, Q5T2W1
T9 sequence (Q5T2W1 4-100, limits assumed, looked up): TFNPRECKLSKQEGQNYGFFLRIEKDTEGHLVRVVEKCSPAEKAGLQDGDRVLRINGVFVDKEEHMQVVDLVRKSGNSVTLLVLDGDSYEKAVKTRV

[21] = target: T10, DLG3_2, Q92796
T10 sequence (Q92796 221-321, limits assumed, looked up): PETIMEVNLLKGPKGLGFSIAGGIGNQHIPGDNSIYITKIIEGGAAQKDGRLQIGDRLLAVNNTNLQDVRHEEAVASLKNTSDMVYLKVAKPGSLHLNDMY

[22] = target: TJP1_2, Q07157
[23] = target: T11, GRIP1_3, Q9Y3R0
T11 sequence (Q9Y3R0 247-346, limits assumed, looked up): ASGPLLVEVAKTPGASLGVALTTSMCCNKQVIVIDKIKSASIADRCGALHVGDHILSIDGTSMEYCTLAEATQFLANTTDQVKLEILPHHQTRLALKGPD

[24] = target: T12, NHERF3_4, Q5T2W1
T12 sequence (Q5T2W1 373-468, limits assumed, looked up): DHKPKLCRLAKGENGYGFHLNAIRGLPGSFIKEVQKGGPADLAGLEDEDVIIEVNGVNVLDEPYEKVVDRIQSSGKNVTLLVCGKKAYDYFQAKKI

[25] = target: T13, MPDZ_5, O75970
T13 sequence (O75970 695-796, limits assumed, looked up): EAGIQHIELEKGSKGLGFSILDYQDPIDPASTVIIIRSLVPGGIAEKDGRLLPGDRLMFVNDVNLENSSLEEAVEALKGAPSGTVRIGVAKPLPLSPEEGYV

[26] = plain residues with an end cap or a label only (N-terminal biotin on a linker: ahx)
[27] = plain residues with an end cap or a label only (N-terminal biotin on a linker: ttds)
[28] = plain residues with an end cap or a label only (N-terminal biotin on a linker: ado-ado)

TJP1_2, Q07157, sequence (Q07157 181-274): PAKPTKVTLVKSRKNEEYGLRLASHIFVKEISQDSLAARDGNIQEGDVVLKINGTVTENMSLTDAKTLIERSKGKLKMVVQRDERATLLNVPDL
GRIP2_5, Q9C0E4, sequence (Q9C0E4 544-642): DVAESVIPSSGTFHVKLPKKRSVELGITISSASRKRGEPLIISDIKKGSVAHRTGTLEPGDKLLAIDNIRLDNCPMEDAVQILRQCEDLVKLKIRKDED
Inadl_8, Q8NI35, sequence (Q8NI35 1425-1530): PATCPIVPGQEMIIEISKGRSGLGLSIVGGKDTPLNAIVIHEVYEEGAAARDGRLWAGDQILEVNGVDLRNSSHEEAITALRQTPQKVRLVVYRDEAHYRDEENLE
LNX1_2, Q8TBB1, sequence (Q8TBB1 371-470): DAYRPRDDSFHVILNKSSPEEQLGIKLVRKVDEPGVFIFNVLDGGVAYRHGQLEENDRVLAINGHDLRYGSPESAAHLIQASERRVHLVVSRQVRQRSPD
DLG1_2, Q12959, sequence (Q12959 314-412): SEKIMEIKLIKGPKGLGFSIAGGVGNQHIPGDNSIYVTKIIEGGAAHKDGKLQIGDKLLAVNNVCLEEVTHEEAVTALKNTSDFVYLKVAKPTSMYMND
SCRIB_2, Q14160, sequence (Q14160 857-960): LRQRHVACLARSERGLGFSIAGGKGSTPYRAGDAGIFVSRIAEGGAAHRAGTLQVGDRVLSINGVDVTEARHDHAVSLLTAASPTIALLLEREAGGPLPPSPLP
GRIP2_7, Q9C0E4, sequence (Q9C0E4 934-1023): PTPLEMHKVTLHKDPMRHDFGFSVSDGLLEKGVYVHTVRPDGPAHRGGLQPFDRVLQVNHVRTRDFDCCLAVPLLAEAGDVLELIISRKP
FRMPD2_2, Q68DX3, sequence (Q68DX3 944-1038): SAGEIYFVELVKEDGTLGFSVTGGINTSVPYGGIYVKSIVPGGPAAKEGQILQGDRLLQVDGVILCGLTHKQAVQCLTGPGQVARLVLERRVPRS
GIPC2, Q8TF65, sequence (Q8TF65 112-203): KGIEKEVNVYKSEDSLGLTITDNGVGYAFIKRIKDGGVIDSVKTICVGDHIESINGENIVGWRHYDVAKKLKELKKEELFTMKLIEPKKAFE
PARD3_3, Q8TEW0, sequence (Q8TEW0 582-685): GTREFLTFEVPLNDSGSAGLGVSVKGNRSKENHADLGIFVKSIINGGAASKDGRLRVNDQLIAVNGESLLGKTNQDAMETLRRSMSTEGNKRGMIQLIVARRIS

## YNSFLSVTTV [PDZRN3, Q9UPQ7]
[1]; [26]
  pKd: below the threshold
[2]; [26]
  pKd: 3.98
[3]; [26]
  pKd: below the threshold
[4]; [26]
  pKd: below the threshold
[5]; [26]
  pKd: 3.76
[6]; [26]
  pKd: 4.19
[7]; [26]
  pKd: below the threshold
[8]; [26]
  pKd: 4.3
[9]; [26]
  pKd: 4.23
[10]; [26]
  pKd: 3.73
[11]; [26]
  pKd: below the threshold
[12]; [26]
  pKd: 3.72
[13]; [26]
  pKd: below the threshold
[14]; [26]
  pKd: 3.79
[15]; [26]
  pKd: 5.58
[16]; [26]
  pKd: below the threshold
[17]; [26]
  pKd: 4.06
[18]; [26]
  pKd: 3.47
[19]; [26]
  pKd: 3.69
[20]; [26]
  pKd: below the threshold
[21]; [26]
  pKd: 4.27
[22]; [26]
  pKd: below the threshold
[23]; [26]
  pKd: below the threshold
[24]; [26]
  pKd: 3.63
[25]; [26]
  pKd: below the threshold

## SHSSKGETAV [FZD7, O75084]
[1]; [27]
  pKd: below the threshold
[2]; [27]
  pKd: 4.55
[3]; [27]
  pKd: 3.62
[4]; [27]
  pKd: below the threshold
[5]; [27]
  pKd: 4.34
[6]; [27]
  pKd: 4.78
[7]; [27]
  pKd: below the threshold
[8]; [27]
  pKd: below the threshold
[9]; [27]
  pKd: below the threshold
[10]; [27]
  pKd: 3.81
[11]; [27]
  pKd: 3.89
[12]; [27]
  pKd: 4.49
[13]; [27]
  pKd: below the threshold
[14]; [27]
  pKd: 4.32
[15]; [27]
  pKd: 3.86
[16]; [27]
  pKd: below the threshold
[17]; [27]
  pKd: 4.32
[18]; [27]
  pKd: 4.03
[19]; [27]
  pKd: 4.58
[20]; [27]
  pKd: 4.22
[21]; [27]
  pKd: 4.53
[22]; [27]
  pKd: below the threshold
[23]; [27]
  pKd: below the threshold
[24]; [27]
  pKd: below the threshold
[25]; [27]
  pKd: below the threshold

## PFRSRSPSEV [GPR6, P46095]
[1]; [27]
  pKd: below the threshold
[2]; [27]
  pKd: below the threshold
[3]; [27]
  pKd: below the threshold
[4]; [27]
  pKd: below the threshold
[5]; [27]
  pKd: below the threshold
[6]; [27]
  pKd: 3.87
[7]; [27]
  pKd: below the threshold
[8]; [27]
  pKd: 4.04
[9]; [27]
  pKd: below the threshold
[10]; [27]
  pKd: below the threshold
[11]; [27]
  pKd: 3.61
[12]; [27]
  pKd: below the threshold
[13]; [27]
  pKd: below the threshold
[14]; [27]
  pKd: below the threshold
[15]; [27]
  pKd: below the threshold
[16]; [27]
  pKd: below the threshold
[17]; [27]
  pKd: 3.68
[18]; [27]
  pKd: 3.63
[19]; [27]
  pKd: below the threshold
[20]; [27]
  pKd: below the threshold
[21]; [27]
  pKd: below the threshold
[22]; [27]
  pKd: below the threshold
[23]; [27]
  pKd: below the threshold
[24]; [27]
  pKd: below the threshold
[25]; [27]
  pKd: below the threshold

## KLVIKTETTV [RASSF6, Q6ZTQ3]
[1]; [27]
  pKd: below the threshold
[2]; [27]
  pKd: 5.24
[3]; [27]
  pKd: below the threshold
[4]; [27]
  pKd: below the threshold
[5]; [27]
  pKd: 4.36
[6]; [27]
  pKd: 5.55
[7]; [27]
  pKd: below the threshold
[8]; [27]
  pKd: below the threshold
[9]; [27]
  pKd: 3.66
[10]; [27]
  pKd: below the threshold
[11]; [27]
  pKd: 3.72
[12]; [27]
  pKd: 4.14
[13]; [27]
  pKd: below the threshold
[14]; [27]
  pKd: 4.16
[15]; [27]
  pKd: 4.39
[16]; [27]
  pKd: below the threshold
[17]; [27]
  pKd: 4.49
[18]; [27]
  pKd: 4.23
[19]; [27]
  pKd: 3.95
[20]; [27]
  pKd: below the threshold
[21]; [27]
  pKd: 5.53
[22]; [27]
  pKd: below the threshold
[23]; [27]
  pKd: below the threshold
[24]; [27]
  pKd: below the threshold
[25]; [27]
  pKd: below the threshold

## KEYDDELTFF [USH1C, Q9Y6N9]
[1]; [26]
  pKd: below the threshold
[2]; [26]
  pKd: below the threshold
[3]; [26]
  pKd: below the threshold
[4]; [26]
  pKd: 5.09
[5]; [26]
  pKd: 3.49
[6]; [26]
  pKd: below the threshold
[7]; [26]
  pKd: below the threshold
[8]; [26]
  pKd: below the threshold
[9]; [26]
  pKd: below the threshold
[10]; [26]
  pKd: below the threshold
[11]; [26]
  pKd: below the threshold
[12]; [26]
  pKd: below the threshold
[13]; [26]
  pKd: below the threshold
[14]; [26]
  pKd: below the threshold
[15]; [26]
  pKd: 3.64
[16]; [26]
  pKd: below the threshold
[17]; [26]
  pKd: below the threshold
[18]; [26]
  pKd: below the threshold
[19]; [26]
  pKd: below the threshold
[20]; [26]
  pKd: 4.27
[21]; [26]
  pKd: 3.61
[22]; [26]
  pKd: below the threshold
[23]; [26]
  pKd: below the threshold
[24]; [26]
  pKd: 3.8
[25]; [26]
  pKd: below the threshold

## DAAHHDESNC [FMNL3, Q8IVF7]
[1]; [28]
  pKd: below the threshold
[2]; [28]
  pKd: below the threshold
[3]; [28]
  pKd: 3.68
[4]; [28]
  pKd: below the threshold
[5]; [28]
  pKd: below the threshold
[6]; [28]
  pKd: below the threshold
[7]; [28]
  pKd: below the threshold
[8]; [28]
  pKd: below the threshold
[9]; [28]
  pKd: below the threshold
[10]; [28]
  pKd: below the threshold
[11]; [28]
  pKd: below the threshold
[12]; [28]
  pKd: below the threshold
[13]; [28]
  pKd: below the threshold
[14]; [28]
  pKd: below the threshold
[15]; [28]
  pKd: below the threshold
[16]; [28]
  pKd: below the threshold
[17]; [28]
  pKd: 3.62
[18]; [28]
  pKd: below the threshold
[19]; [28]
  pKd: below the threshold
[20]; [28]
  pKd: below the threshold
[21]; [28]
  pKd: 4.09
[22]; [28]
  pKd: below the threshold
[23]; [28]
  pKd: below the threshold
[24]; [28]
  pKd: below the threshold
[25]; [28]
  pKd: below the threshold
